The values below come from publication PMC6555819, “Comprehensive study of nuclear receptor DNA binding provides a revised framework for understanding receptor specificity”.

In one series the target is RXRa (Homo sapiens, UniProt P19793). Briefly: no ligand; PBM; 180 nM; PBS pH 7.4, 2% milk, 0.02% Triton X-100, 1 mM DTT, BSA, 0.4 mg/ml salmon testes DNA. The conditions noted are these: tags: His cleaved; chain copies: 2; label: surface-attached array probe.
The target of another series is VDR:RXRa (Homo sapiens, UniProt P11473;P19793 full;full). The experiment in a line: no ligand; PBM; 270 nM : 90 nM RXRa; PBS pH 7.4, 2% milk, 0.02% Triton X-100, 1 mM DTT, BSA, 0.4 mg/ml salmon testes DNA. The conditions noted are these: tags: His kept;His cleaved; copies: 1;1; label: surface-attached array probe. The essentials: (§1)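 Custom Agilent 4×180K protein-binding microarrays carried double-stranded probes, each with a 34-nt variable region. These regions held direct-repeat seeds, single-nucleotide variants, half-site ablations and random human genomic background sequences. Ligand-free nuclear receptor dimers were incubated on the arrays for 1 h, antibodies against each partner (one per run) detected binding, and scanned fluorescence was regression-normalized. Binding z-scores take the random background probes as reference.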

A further series concerns the target RARa:RXRa (Homo sapiens, UniProt P10276;P19793 full;full). The description is as above. Conditions: tags: His kept;His cleaved; copies: 1;1; label: surface-attached array probe. The essentials:
as §1

In the next series the target is FXR:RXRa (Homo sapiens, UniProt Q96RI1;P19793 full;full). The series is described as above. The conditions noted are these: tags: His kept;His cleaved; copies: 1;1; label: surface-attached array probe. In short, it runs like this: as §1
FXR:RXRa, sequence (Q96RI1 whole entry, chain 1 of 2): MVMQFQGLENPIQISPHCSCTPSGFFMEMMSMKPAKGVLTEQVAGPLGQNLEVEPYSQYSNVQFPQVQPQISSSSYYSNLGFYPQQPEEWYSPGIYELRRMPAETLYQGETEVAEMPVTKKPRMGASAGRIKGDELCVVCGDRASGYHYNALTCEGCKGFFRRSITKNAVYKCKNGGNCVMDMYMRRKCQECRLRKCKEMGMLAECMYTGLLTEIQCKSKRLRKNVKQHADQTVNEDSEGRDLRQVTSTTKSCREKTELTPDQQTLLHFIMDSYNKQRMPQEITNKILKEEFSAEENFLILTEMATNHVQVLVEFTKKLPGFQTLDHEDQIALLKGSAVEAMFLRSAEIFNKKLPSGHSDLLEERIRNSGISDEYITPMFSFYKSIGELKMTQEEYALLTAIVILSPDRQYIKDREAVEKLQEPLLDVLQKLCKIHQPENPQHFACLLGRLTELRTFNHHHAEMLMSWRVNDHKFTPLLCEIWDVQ
FXR:RXRa, sequence (P19793 whole entry, chain 2 of 2): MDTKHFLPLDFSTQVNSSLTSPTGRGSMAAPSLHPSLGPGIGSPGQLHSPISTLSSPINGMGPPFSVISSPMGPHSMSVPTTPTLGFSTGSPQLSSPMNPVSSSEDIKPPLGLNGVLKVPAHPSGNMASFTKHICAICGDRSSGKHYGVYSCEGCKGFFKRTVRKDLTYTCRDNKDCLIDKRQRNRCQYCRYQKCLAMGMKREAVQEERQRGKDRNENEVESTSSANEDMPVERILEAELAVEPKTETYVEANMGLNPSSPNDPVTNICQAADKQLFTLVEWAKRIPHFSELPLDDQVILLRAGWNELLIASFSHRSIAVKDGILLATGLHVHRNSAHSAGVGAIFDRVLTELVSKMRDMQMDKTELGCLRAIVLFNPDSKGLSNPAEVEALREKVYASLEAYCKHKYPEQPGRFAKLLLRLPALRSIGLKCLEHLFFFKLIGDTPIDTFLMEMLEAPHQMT
The target in another series is PXR:RXRa (Homo sapiens, UniProt O75469;P19793 full;full). The series is described as above. The conditions noted are these: tags: His kept;His cleaved; copies: 1;1; label: surface-attached array probe. In short, it runs like this:
as §1

Another series addresses LXRb:RXRa (Homo sapiens, UniProt P55055;P19793 full;full). The series is described as above. Conditions: tags: His kept;His cleaved; copies: 1;1; label: surface-attached array probe. In short, it runs like this: as §1
Another series addresses RARg:RXRa (Homo sapiens, UniProt P13631;P19793 full;full). The description is as above. The conditions noted are these: tags: His kept;His cleaved; copies: 1;1; label: surface-attached array probe. The essentials: as §1
The target of another series is LXRa:RXRa (Homo sapiens, UniProt Q13133;P19793 full;full). The series is described as above. The conditions noted are these: tags: His kept;His cleaved; copies: 1;1; label: surface-attached array probe. In short, it runs like this:
as §1

For a further series, the target named is THRa:RXRa (Homo sapiens, UniProt P10827;P19793 full;full). The experiment in a line: no ligand; PBM; 90 nM : 90 nM RXRa; PBS pH 7.4, 2% milk, 0.02% Triton X-100, 1 mM DTT, BSA, 0.4 mg/ml salmon testes DNA. The conditions noted are these: tags: His kept;His cleaved; copies: 1;1; label: surface-attached array probe.
A further series has as its target PPARg:RXRa (Homo sapiens, UniProt P37231;P19793 full;full). The experiment in a line: no ligand; PBM; 180 nM : 90 nM RXRa; PBS pH 7.4, 2% milk, 0.02% Triton X-100, 1 mM DTT, BSA, 0.4 mg/ml salmon testes DNA. Conditions: tags: His kept;His cleaved; copies: 1;1; label: surface-attached array probe.
The next series addresses RARb:RXRa (Homo sapiens, UniProt P10826;P19793 full;full). The experiment in a line: no ligand; PBM; 270 nM : 90 nM RXRa; PBS pH 7.4, 2% milk, 0.02% Triton X-100, 1 mM DTT, BSA, 0.4 mg/ml salmon testes DNA. Conditions: tags: His kept;His cleaved; copies: 1;1; label: surface-attached array probe. In short, it runs like this:
as §1

The target of another series is PPARa:RXRa (Homo sapiens, UniProt Q07869;P19793 full;full). The series is described as above. The conditions noted are these: tags: GST kept;His cleaved; copies: 1;1; label: surface-attached array probe. The essentials:
as §1

PXR:RXRa, sequence (O75469 whole entry, chain 1 of 2): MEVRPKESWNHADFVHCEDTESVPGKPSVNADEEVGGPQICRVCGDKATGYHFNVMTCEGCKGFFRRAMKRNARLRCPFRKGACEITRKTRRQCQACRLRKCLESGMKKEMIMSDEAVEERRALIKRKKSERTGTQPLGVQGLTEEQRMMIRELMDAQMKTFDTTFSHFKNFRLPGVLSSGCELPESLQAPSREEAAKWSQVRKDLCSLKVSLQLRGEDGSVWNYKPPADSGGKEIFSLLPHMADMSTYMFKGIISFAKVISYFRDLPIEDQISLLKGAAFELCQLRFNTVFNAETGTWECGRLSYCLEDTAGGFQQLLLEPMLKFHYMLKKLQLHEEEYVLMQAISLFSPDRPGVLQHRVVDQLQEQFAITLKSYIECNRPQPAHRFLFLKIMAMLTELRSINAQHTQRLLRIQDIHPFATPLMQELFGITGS
PXR:RXRa, sequence (P19793 whole entry, chain 2 of 2): as the sequence (P19793 whole entry, chain 2 of 2) above
LXRa:RXRa, sequence (Q13133 whole entry, chain 1 of 2): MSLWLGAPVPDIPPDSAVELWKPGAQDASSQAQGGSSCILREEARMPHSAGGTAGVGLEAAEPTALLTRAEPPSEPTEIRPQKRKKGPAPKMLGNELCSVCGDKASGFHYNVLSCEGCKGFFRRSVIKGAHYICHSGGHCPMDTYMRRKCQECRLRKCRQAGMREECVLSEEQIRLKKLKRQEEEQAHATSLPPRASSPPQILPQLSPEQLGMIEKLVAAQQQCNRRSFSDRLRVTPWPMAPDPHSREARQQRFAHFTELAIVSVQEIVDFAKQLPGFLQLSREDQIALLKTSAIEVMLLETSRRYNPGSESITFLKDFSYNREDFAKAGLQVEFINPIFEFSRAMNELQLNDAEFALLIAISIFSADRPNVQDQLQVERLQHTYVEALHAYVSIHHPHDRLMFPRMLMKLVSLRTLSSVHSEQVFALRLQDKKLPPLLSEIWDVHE
LXRa:RXRa, sequence (P19793 whole entry, chain 2 of 2): as the sequence (P19793 whole entry, chain 2 of 2) above
RXRa, sequence (P19793 whole entry): as the sequence (P19793 whole entry, chain 2 of 2) above
RARb:RXRa, sequence (P10826 whole entry, chain 1 of 2): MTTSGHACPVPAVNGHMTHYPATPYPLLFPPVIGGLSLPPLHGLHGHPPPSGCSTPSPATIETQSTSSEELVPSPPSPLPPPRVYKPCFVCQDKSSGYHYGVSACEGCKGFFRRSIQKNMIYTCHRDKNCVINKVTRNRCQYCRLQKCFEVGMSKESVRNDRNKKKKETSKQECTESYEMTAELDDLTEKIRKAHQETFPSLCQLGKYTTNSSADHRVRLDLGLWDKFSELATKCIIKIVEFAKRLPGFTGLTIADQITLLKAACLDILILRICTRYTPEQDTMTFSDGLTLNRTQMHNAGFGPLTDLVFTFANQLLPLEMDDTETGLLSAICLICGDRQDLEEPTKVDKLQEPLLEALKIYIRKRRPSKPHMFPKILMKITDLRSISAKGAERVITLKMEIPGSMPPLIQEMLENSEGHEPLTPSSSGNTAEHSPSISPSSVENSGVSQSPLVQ
RARb:RXRa, sequence (P19793 whole entry, chain 2 of 2): as the sequence (P19793 whole entry, chain 2 of 2) above

B1: NRC3_wobSeed37_DR1_G22T_o1 (dsDNA)
DNA 1: GCCGTCCAAGGTCAAAGGTCATTGAAGAGATGACGGGCGATTGACAGCGTAGAATGAAGG
DNA 2: CCTTCATTCTACGCTGTCAATCGCCCGTCATCTCTTCAATGACCTTTGACCTTGGACGGC
On to B1, for which the binding signal in the series with RXRa was 11.1 PBM z-score against 500 random probes; with VDR:RXRa it was 7.41 PBM z-score against 500 random probes; with RARa:RXRa, 9.26 PBM z-score against 500 random probes; in the series with FXR:RXRa it was 8.93 PBM z-score against 500 random probes; with PXR:RXRa, 7.7 PBM z-score against 500 random probes; in the series with LXRb:RXRa, 7.46 PBM z-score against 500 random probes. Further, the binding signal with RARg:RXRa was 9.4 PBM z-score against 500 random probes; in the series with LXRa:RXRa, 7.79 PBM z-score against 500 random probes; with THRa:RXRa, 5.12 PBM z-score against 500 random probes; with PPARg:RXRa, 12.1 PBM z-score against 500 random probes.

B2: NRC3_wobSeed45_DR1_A20C_o1 (dsDNA)
DNA 1: GCTGTCAAAGTTCAAAGGTCACGTAAGTATCCACACGCGATTGACAGCGTAGAATGAAGG
DNA 2: CCTTCATTCTACGCTGTCAATCGCGTGTGGATACTTACGTGACCTTTGAACTTTGACAGC
Regarding B2, the binding signal with RXRa was 11 PBM z-score against 500 random probes; with RARb:RXRa, 6.42 PBM z-score against 500 random probes; with VDR:RXRa, 7.65 PBM z-score against 500 random probes; with RARa:RXRa, 9.47 PBM z-score against 500 random probes; with FXR:RXRa it was 9.44 PBM z-score against 500 random probes; with PXR:RXRa, 8.16 PBM z-score against 500 random probes. Also, the binding signal in the series with LXRb:RXRa was 7.9 PBM z-score against 500 random probes; in the series with PPARa:RXRa, 7.56 PBM z-score against 500 random probes; with RARg:RXRa, 9.56 PBM z-score against 500 random probes; with LXRa:RXRa it was 8.34 PBM z-score against 500 random probes; in the series with THRa:RXRa, 5.33 PBM z-score against 500 random probes; in the series with PPARg:RXRa, 11.8 PBM z-score against 500 random probes.

B3: NRC3_wobSeed27_DR1_A12T_o1 (dsDNA)
DNA 1: GCACTCGGAGGTCAAAGGTCAGAGCTACGCCAGTGAGCGATTGACAGCGTAGAATGAAGG
DNA 2: CCTTCATTCTACGCTGTCAATCGCTCACTGGCGTAGCTCTGACCTTTGACCTCCGAGTGC
Regarding B3, the binding signal with RXRa is 10.9 PBM z-score against 500 random probes; with RARb:RXRa, 5.85 PBM z-score against 500 random probes; with VDR:RXRa it was 7.02 PBM z-score against 500 random probes; in the series with RARa:RXRa it was 9.37 PBM z-score against 500 random probes; in the series with FXR:RXRa it was 8.54 PBM z-score against 500 random probes; with PXR:RXRa, 7.52 PBM z-score against 500 random probes. Moreover, the binding signal was 6.9 PBM z-score against 500 random probes with LXRb:RXRa; 7.2 PBM z-score against 500 random probes in the series with PPARa:RXRa; 9.09 PBM z-score against 500 random probes with RARg:RXRa; 7.5 PBM z-score against 500 random probes with LXRa:RXRa; 4.83 PBM z-score against 500 random probes with THRa:RXRa; 11.6 PBM z-score against 500 random probes with PPARg:RXRa.

B4: NRC3_wobSeed42_DR1_C19T_o1 (dsDNA)
DNA 1: GCTATACAGGGTCAAAGGTCAGAGTACGAATGTCGAGCGATTGACAGCGTAGAATGAAGG
DNA 2: CCTTCATTCTACGCTGTCAATCGCTCGACATTCGTACTCTGACCTTTGACCCTGTATAGC
In the case of B4, the binding signal in the series with RXRa is 10.7 PBM z-score against 500 random probes; with RARb:RXRa, 5.62 PBM z-score against 500 random probes; in the series with VDR:RXRa, 7.15 PBM z-score against 500 random probes; with RARa:RXRa, 9.11 PBM z-score against 500 random probes; with FXR:RXRa it was 8.5 PBM z-score against 500 random probes; with PXR:RXRa, 7.29 PBM z-score against 500 random probes. The binding signal in the series with LXRb:RXRa is 7.29 PBM z-score against 500 random probes; with PPARa:RXRa it was 7.46 PBM z-score against 500 random probes; with RARg:RXRa, 8.67 PBM z-score against 500 random probes; with LXRa:RXRa it was 7.52 PBM z-score against 500 random probes; with THRa:RXRa it was 4.83 PBM z-score against 500 random probes; with PPARg:RXRa, 12.3 PBM z-score against 500 random probes.

B5: NRC3_wobSeed29_DR1_T20C_o1 (dsDNA)
DNA 1: GCGCTTACGGGTCAAAGGTCATAGCATGAATAGAATGCGATTGACAGCGTAGAATGAAGG
DNA 2: CCTTCATTCTACGCTGTCAATCGCATTCTATTCATGCTATGACCTTTGACCCGTAAGCGC
For B5, the binding signal was 10.8 PBM z-score against 500 random probes with RXRa; 5.71 PBM z-score against 500 random probes with RARb:RXRa; 7.18 PBM z-score against 500 random probes in the series with VDR:RXRa; 9.33 PBM z-score against 500 random probes with RARa:RXRa; 8.57 PBM z-score against 500 random probes in the series with FXR:RXRa; 7.5 PBM z-score against 500 random probes in the series with PXR:RXRa. The binding signal in the series with LXRb:RXRa is 7.5 PBM z-score against 500 random probes; with PPARa:RXRa, 7.49 PBM z-score against 500 random probes; in the series with RARg:RXRa, 9.01 PBM z-score against 500 random probes; in the series with LXRa:RXRa, 7.26 PBM z-score against 500 random probes; with THRa:RXRa, 4.82 PBM z-score against 500 random probes; with PPARg:RXRa, 13.1 PBM z-score against 500 random probes.
